One substance from paper PMC11161584 can be followed below.

The assay has as its target PTRAMP-CSS heterodimer (Plasmodium thrombospondin-related apical merozoite protein with small cystei (P. falciparum (3D7 clone))). As to the kind of experiment: SPR. (In general: In SPR one partner is held on a chip, and binding of the other changes the refractive index at the surface.)

Consider “RH5-interacting protein (RIPR), full-length soluble recombinant protein (from UniProt O97302 20-1086) (natural protein)”, for which the Kd (in general, the concentration at which binding is half-saturated) was 4.5 µM.
